Data reported in paper PMC10080691, “Enzyme-Responsive Double-Locked Photodynamic Molecular Beacon for Targeted Photodynamic Anticancer Therapy” (Journal of the American Chemical Society, 2023).

Tests used:
[1] = Singlet oxygen quantum yield in DMF with DPBF as probe; format: physicochemical; details: irradiation λ > 610 nm, relative to ZnPc (ΦΔ = 0.56 in DMF)
Excerpt: The singlet oxygen generation efficiency of 1 was then studied and compared with that of 8, 14, and ZnPc in all these media using 1,3-diphenylisobenzofuran (DPBF) as the singlet oxygen probe.[67] The absorbance of DPBF’s absorption at 415 nm (in DMF) or 417 nm (in PBS and the buffer) was monitored during light irradiation (λ > 610 nm). Figures S4–S6 show the changes in the absorption spectra of the mixtures in DMF, PBS, and the buffer, respectively, upon irradiation. […] The singlet oxygen quantum yields (ΦΔ) were also determined in DMF. […]
where W and Iabs are the DPBF photobleaching rate and the rate of light absorption, […]
MMP-2 and Cathepsin B-Responsive Spectroscopic Studies
Compound 1 or 14 was dissolved in DMF to form a 1 mM stock solution, which was then diluted to 1 μM with PBS at pH 7.4 or buffer solution (pH 5.0, 25 mM NaOAc, 1 mM EDTA, 500 μM GSH), both in the presence of 0.1% Tween 80 (v/v) . For the MMP-2-responsive studies, the solutions in PBS were treated with MMP-2 (2 μg mL-1). For the cathepsin B-responsive studies, the solutions in buffer solution were treated with cathepsin B (1 unit mL-1). […]
All of the solutions were stirred continuously at 37 °C. The ir electronic absorption and fluorescence spectra were monitored over a period of 25 h. […]

[2] = Fluorescence quantum yield in DMF; format: physicochemical; details: excited at 610 nm, relative to ZnPc (ΦF = 0.28 in DMF)
Excerpt: The electronic absorption and fluorescence spectra of PMB 1 were first recorded in DMF and compared with those of the components 8 and 11, as well as the non-cleavable analogue 14 (Figure S2 and Table 1). […] In contrast, the fluorescence spectra of 1 and 14 were remarkably different from that of DSBDP 8.

A549 cells = assay: Intracellular ROS generation (H2DCFDA); format: cell-based, human; details: 2 μM 1 h + 6 h, light λ > 610 nm, 23 mW cm-2, 14 J cm-2
Description: The enzyme-responsive intracellular ROS generation of 1 was then examined in A549 and HeLa cells using 2′,7′-dichlorodihydrofluorescein diacetate (H2DCFDA) as the ROS fluorescent probe. Once H2DCFDA is internalized, it will be deacetylated by the intracellular esterase, followed by oxidation by the intracellular ROS, leading to the formation of the highly fluorescent 2′,7′-dichlorofluorescein (DCF).[79] The cells were first pretreated with SB-3CT (10 μM) and/or CA-074 Me (25 μM) or simply the neat medium for 2 h, followed by incubation with 1 (2 μM) for a further 1 h. As a negative control, the cells were simply incubated with 14 (2 μM) for 1 h. After being rinsed with PBS, the cells were incubated in the medium for a further 6 h. Finally, the cells were incubated with H2DCFDA (10 μM) for 30 min, followed by dark or light (λ > 610 nm, 23 mW cm^–2, 14 J cm^–2) treatment. […] It can be seen that for the MMP-2-positive A549 cells, the fluorescence due to DCF was in the following order: 1 without pretreatment of the cells with the two inhibitors > 1 with pretreatment of the cells with either one of the two inhibitors > 1 with pretreatment of the cells with both inhibitors ≈ 14. […] This trend, which reflects the extent of recovery of ROS generation, was in accord with that of the fluorescence recovery inside the cells (Figure 5c,d). For the MMP-2-negative HeLa cells, the intracellular fluorescence remained very weak even for 1 without pretreatment of the cells with the two inhibitors because of the intrinsically low MMP levels in the cells. […]
or ER-Tracker Green (Thermo Fisher Scientific Inc., E34251) (1 μM for 15 min) in a serum-free medium at 37 °C. […] All the trackers were excited at 488 nm and their fluorescence was monitored at 500−570 nm, while the DSBDP moiety was excited at 638 nm and its fluorescence was monitored at 650−750nm. The images were digitized and analyzed using a Leica Application Suite X software. […]
at 500−550 nm. The images were digitized and analyzed using a Leica Application Suite X […]

| SMILES | ΦΔ (singlet oxygen quantum yield) [1] | ΦF (fluorescence quantum yield) [2] | intracellular ROS generation (DCF fluorescence) (A549 cells; pretreatment with both SB-3CT (10 μM) and CA-074 Me (25 μM) 2 h) | intracellular ROS generation (DCF fluorescence) (A549 cells; no inhibitor pretreatment) |
| --- | --- | --- | --- | --- |
| CCN(CC)c1ccc2nc3ccc(/N=N/c4ccc(N(C)CCCNC(=O)OC[C@@H]5[C@@H]6CCc7nnn(CC(=O)NCCCC[C@@H]8NC(=O)CNC(=O)[C@H](CCCCN)NC(=O)[C@H](CCCNC(=N)N)NC(=O)[C@H](C(C)C)NC(=O)CNC(=O)[C@H](CC(C)C)NC(=O)[C@@H]9CCCN9C(=O)[C@H](CCCCN)NC(=O)[C@@H](N)CSCc9cc(COc%10ccc(C%11=C%12C(C)=C(I)C(/C=C/c%13ccc(OCCOCCOCCOC)cc%13)=[N+]%12[B-](F)(F)n%12c(/C=C/c%13ccc(OCCOCCOCCOC)cc%13)c(I)c(C)c%12%11)cc%10)cc(c9)CSC[C@@H](C(N)=O)NC(=O)[C@H](CCCCN)NC(=O)[C@H](CCCCN)NC(=O)CNC(=O)[C@H](CC(C)C)NC(=O)[C@H](Cc9ccccc9)NC(=O)CNC(=O)[C@H](CCCCN)NC(=O)CNC8=O)c7CC[C@@H]65)cc4)cc3[n+](-c3ccccc3)c2c1 [compound 1] | 0.02 | 0.01 | could hardly be observed | – |
| CCN(CC)c1ccc2nc3ccc(/N=N/c4ccc(N(C)CCCNC(=O)OC[C@@H]5[C@@H]6CCc7nnn(CC(=O)NCCCC[C@@H]8NC(=O)CNC(=O)[C@H](CCCCN)NC(=O)CNC(=O)CNC(=O)CNC(=O)CNC(=O)CNC(=O)[C@H](CCCCN)NC(=O)[C@@H](N)CSCc9cc(COc%10ccc(C%11=C%12C(C)=C(I)C(/C=C/c%13ccc(OCCOCCOCCOC)cc%13)=[N+]%12[B-](F)(F)n%12c(/C=C/c%13ccc(OCCOCCOCCOC)cc%13)c(I)c(C)c%12%11)cc%10)cc(c9)CSC[C@@H](C(N)=O)NC(=O)[C@H](CCCCN)NC(=O)[C@H](CCCCN)NC(=O)CNC(=O)CNC(=O)CNC(=O)CNC(=O)[C@H](CCCCN)NC(=O)CNC8=O)c7CC[C@@H]65)cc4)cc3[n+](-c3ccccc3)c2c1 [compound 14] | 0.02 | 0.01 | – | could hardly be observed |
